For one substance, Kd results are on record in paper doi:10.1101/555623.

Test [1] deals with BRCA1 tBRCT L1701K mutant (human) (UniProt P38398). The test can be described thus: MST.
Test [2] deals with BRCA1 tBRCT F1662R mutant (human) (UniProt P38398). The test can be described thus: MST.

One may read the Kd as the constant that tells how readily two partners part at equilibrium. A low value points to tighter binding. Regarding BACH1 phosphopeptide, the Kd in test [1] turned out to be 1960 nM; in test [2], 860 nM.
